Results published in patent US20250163449A1, “HERBICIDE-TOLERANT GENES AND METHOD FOR USING SAME” (QINGDAO KINGAGROOT CHEMICAL COMPOUND CO., LTD., priority 2022, published 2025).

B1: SEQ ID NO: 10 (protein)
chain: MHAALSPLSQRFERIAVQPLTGVLGAEITGVDLREPLDDSTWNEILDAFHTYQVIYFPGQAITNEQHIAFSRRFGPVDPVPHLKSIEGYPEVQMIRREANESGRVIGDDWHTDSTFLDAPPAAVVMRAIDVPEHGGDTGFLSMYTAWETLSPTMQATIEGLNVVHSATRVFGSLYQAQNRRFSNTSMKVMDVDAGDRETVHPLVVTHPGSGRKGLYVNQVYCQRIEGMTDAESKPLLQFLYEHATRFDFTCRVRWKKDQVLVWDNLCTMHRAVPDYAGKFRYLTRTTVGGVRPAR
B2: SEQ ID NO: 70 (protein)
chain: MHAALSPLSQRFERIAVQPLTGVLGAEITGVDLREPLDDSTWNEILDAFHTYQVIYFPGQAITNEQHIAFSRRFGPVDPVPHLKSIEGYPEVQMIRREANESGGVIGDDWHTDSTFLDAPPAAVVMRAIDVPEHGGDTGFLSMYTAWETLSPTMQATIEGLNVVHSATRVFGSLYQAQNRRWSNTSLKVMDVDAGDRETVHPLVVTHPGSGRKGLYVNCVYCQRIEGMTDAESKPLLQFLYEHATRFDFTCRVRWKKDQVLVWDNLCTMHRAVPDYAGKFRYLTRTTVGGVRPAR
B3: SEQ ID NO: 62 (protein)
chain: MHAALSPLSQRFERIAVQPLTGVLGAEITGVDLREPLDDSTWNEILDAFHTYQVIYFPGQAITNEQHIAFSRRFGPVDPVPHLKSIEGYPEVQMIRREANESGGVIGCDWHTDSTFLDAPPAAVVMRAIDVPEHGGDTGFLSMYTAWETLSPTMQATIEGLNVVHSATRVFGSLYQAQNRRWSNTSLKVMDVDAGDRETVHPLVVTHPGSGRKGLYVNQVYCQRIEGMTDAESKPLLQFLYEHATRFDFTCRVRWKKDQVLVWDNLCTMHRAVPDYAGKFRYLTRTTVGGVRPAR
B4: SEQ ID NO: 34 (protein)
chain: MHAALSPLSQRFERIAVQPLTGVLGAEITGVDLREPLDDSTWNEILDAFHTYQVIYFPGQAITNEQHIAFSRRFGPVDPVPHLKSIEGYPEVQMIRREANESLRVIGDDWHTDSTFLDAPPAAVVMRAIDVPEHGGDTGFLSMYTAWETLSPTMQATIEGLNVVHSATRVFGSLYQAQNRRFSNTSLKVMDVDAGDRETVHPLVVTHPGSGRKGLYVNQVYCQRIEGMTDAESKPLLQFLYEHATRFDFTCRVRWKKDQVLVWDNLCTMHRAVPDYAGKFRYLTRTTVGGVRPAR
B5: SEQ ID NO: 18 (protein)
chain: MHAALSPLSQRFERIAVQPLTGVLGAEITGVDLREPLDDSTWNEILDAFHTYQVIYFPGQAITNEQHIAFSRRFGPVDPVPHLKSIEGYPEVQMIRREANESGAVIGDDWHTDSTFLDAPPAAVVMRAIDVPEHGGDTGFLSMYTAWETLSPTMQATIEGLNVVHSATRVFGSLYQAQNRRFSNTSLKVMDVDAGDRETVHPLVVTHPGSGRKGLYVNQVYCQRIEGMTDAESKPLLQFLYEHATRFDFTCRVRWKKDQVLVWDNLCTMHRAVPDYAGKFRYLTRTTVGGVRPAR
B6: SEQ ID NO: 26 (protein)
chain: MHAALSPLSQRFERIAVQPLTGVLGAEITGVDLREPLDDSTWNEILDAFHTYQVIYFPGQAITNEQHIAFSRRFGPVDPVPHLKSIEGYPEVQMIRREANESGLVIGDDWHTDSTFLDAPPAAVVMRAIDVPEHGGDTGFLSMYTAWETLSPTMQATIEGLNVVHSATRVFGSLYQAQNRRFSNTSLKVMDVDAGDRETVHPLVVTHPGSGRKGLYVNQVYCQRIEGMTDAESKPLLQFLYEHATRFDFTCRVRWKKDQVLVWDNLCTMHRAVPDYAGKFRYLTRTTVGGVRPAR
B7: SEQ ID NO: 30 (protein)
chain: MHAALSPLSQRFERIAVQPLTGVLGAEITGVDLREPLDDSTWNEILDAFHTYQVIYFPGQAITNEQHIAFSRRFGPVDPVPHLKSIEGYPEVQMIRREANESGRVIGDDWHTDSTFLDAPPAAVVMRAIDVPEHGGDTGFLSMYTAWETLSPTMQATIEGLNVVHSATRVFGSLYQAQNRRWSNTSLKVMDVDAGDRETVHPLVVTHPGSGRKGLYVNQVYCQRIEGMTDAESKPLLQFLYEHATRFDFTCRVRWKKDQVLVWDNLCTMHRAVPDYAGKFRYLTRTTVGGVRPAR
B8: SEQ ID NO: 66 (protein)
chain: MHAALSPLSQRFERIAVQPLTGVLGAEITGVDLREPLDDSTWNEILDAFHTYQVIYFPGQAITNEQHIAFSRRFGPVDPVPHLKSIEGYPEVQMIRREANESGGVIGDEWHTDSTFLDAPPAAVVMRAIDVPEHGGDTGFLSMYTAWETLSPTMQATIEGLNVVHSATRVFGSLYQAQNRRWSNTSLKVMDVDAGDRETVHPLVVTHPGSGRKGLYVNQVYCQRIEGMTDAESKPLLQFLYEHATRFDFTCRVRWKKDQVLVWDNLCTMHRAVPDYAGKFRYLTRTTVGGVRPAR
B9: SEQ ID NO: 74 (protein)
chain: MHAALSPLSQRFERIAVQPLTGVLGAEITGVDLREPLDDSTWNEILDAFHTYQVIYFPGQAITNEQHIAFSRRFGPVDPVPHLKSIEGYPEVQMIRREANESGGVIGDDWHTDSTFLDAPPAAVVMRAIDVPEHGGDTGFLSMYTAWETLSPTMQATIEGLNVVHSATRVFGSLYQAQNRRWSNTSLKVMDVDAGDRETVHPLVVTHPGSGRKGLYVNPVYCQRIEGMTDAESKPLLQFLYEHATRFDFTCRVRWKKDQVLVWDNLCTMHRAVPDYAGKFRYLTRTTVGGVRPAR
B10: SEQ ID NO: 14 (protein)
chain: MHAALSPLSQRFERIAVQPLTGVLGAEITGVDLREPLDDSTWNEILDAFHTYQVIYFPGQAITNEQHIAFSRRFGPVDPVPHLKSIEGYPEVQMIRREANESGRVIGDDWHTDSTFLDAPPAAVVMRAIDVPEHGGDTGFLSMYTAWETLSPTMQATIEGLNVVHSATRVFGSLYQAQNRRFSNTSIKVMDVDAGDRETVHPLVVTHPGSGRKGLYVNQVYCQRIEGMTDAESKPLLQFLYEHATRFDFTCRVRWKKDQVLVWDNLCTMHRAVPDYAGKFRYLTRTTVGGVRPAR
B11: SEQ ID NO: 22 (protein)
chain: MHAALSPLSQRFERIAVQPLTGVLGAEITGVDLREPLDDSTWNEILDAFHTYQVIYFPGQAITNEQHIAFSRRFGPVDPVPHLKSIEGYPEVQMIRREANESGDVIGDDWHTDSTFLDAPPAAVVMRAIDVPEHGGDTGFLSMYTAWETLSPTMQATIEGLNVVHSATRVFGSLYQAQNRRFSNTSLKVMDVDAGDRETVHPLVVTHPGSGRKGLYVNQVYCQRIEGMTDAESKPLLQFLYEHATRFDFTCRVRWKKDQVLVWDNLCTMHRAVPDYAGKFRYLTRTTVGGVRPAR
B12: SEQ ID NO: 114 (protein)
chain: MHAALSPLSQRFERIAVQPLTGVLGAEITGVDLREPLDDSTWNEILDAFHTYQVIYFPGQAITNEQHIAFSRRFGPVDPVPHLKSIEGYPEVQMIRREANESLRVIGDDWHTDSTFLDAPPAAVVMRAIDVPEHGGDTGFLSMYTAWETLSPTMQATIEGLNVVHSATRVFGSLYQAQNRRWSNTSLKVMDVDAGDRETVHPLVVTHPGSGRKGLYVNQVYCQRIEGMTDAESKPLLQFLYEHATRYDFTCRVRWKKDQVLVWDNLCTMHRAVPDYAGKFRYLTRTTVGGVRPAR
B13: SEQ ID NO: 110 (protein)
chain: MHAALSPLSQRFERIAVQPLTGVLGAEITGVDLREPLDDSTWNEILDAFHTYQVIYFPGQAITNEQHIAFSRRFGPVDPVPHLKSIEGYPEVQMIRREANESLRVIGDDWHMDSTFLDAPPAAVVMRAIDVPEHGGDTGFLSMYTAWETLSPTMQATIEGLNVVHSATRVFGSLYQAQNRRWSNTSLKVMDVDAGDRETVHPLVVTHPGSGRKGLYVNQVYCQRIEGMTDAESKPLLQFLYEHATRFDFTCRVRWKKDQVLVWDNLCTMHRAVPDYAGKFRYLTRTTVGGVRPAR
B14: SEQ ID NO: 94 (protein)
chain: MHAALSPLSQRFERIAVQPLTGVLGAEITGVDLREPLDDSTWNEILDAFHTYQVIYFPGQAITNEQHIAFSRRFGPVDPVPHLKSIEGYPEVQMIRREANESLRVIGDDWHTDSTFLDAPPAAVVMRAIDVPEHGGDTGFLSMYTAWETLSPTMQATIEGLNVVHSATRVFGSLYQAQNWRWSNTSLKVMDVDAGDRETVHPLVVTHPGSGRKGLYVNQVYCQRIEGMTDAESKPLLQFLYEHATRFDFTCRVRWKKDQVLVWDNLCTMHRAVPDYAGKFRYLTRTTVGGVRPAR
B15: SEQ ID NO: 130 (protein)
chain: MHAALSPLSQRFERIAVQPLTGVLGAEITGVDLREPLDDSTWNEILDAFHTYQVIYFPGQAITNEQHIAFSRRFGPVDPVPHLKSIEGYPEVQMIRREANESGGVIGDDWHSDSTFLDAPPAAVVMRAIDVPEHGGDTGFLSMYTAWETLSPTMQATIEGLNVVHSATRVFGSLYQAQNMRWSNTSLKVMDVDAGDRETVHPLVVTHPGSGRKGLYVNQVYCQRIEGMTDAESKPLLQFLYEHATRFDFTCRVRWKKDQVLVWDNLCTMHRAVPDYAGKFRYLTRTTVGGVRPAR
B16: SEQ ID NO: 90 (protein)
chain: MHAALSPLSQRFERIAVQPLTGVLGAEITGVDLREPLDDSTWNEILDAFHTYQVIYFPGQAITNEQHIAFSRRFGPVDPVPHLKSIEGYPEVQMIRREANESLRVIGDDWHTDSTFLDAPPAAVVMRAIDVPEHGGDTGFLSMYTAWETLSPTMQATIEGLNVVHSATRVFGSLYQAQNLRWSNTSLKVMDVDAGDRETVHPLVVTHPGSGRKGLYVNQVYCQRIEGMTDAESKPLLQFLYEHATRFDFTCRVRWKKDQVLVWDNLCTMHRAVPDYAGKFRYLTRTTVGGVRPAR

Assay: Conversion rate of substrate compound A by E. coli expressing each engineered protein (HPLC, oxygenase activity)
Assay type: biochemical
Details: Reaction condition 1: bacteria cultured overnight, substrate compound A and IPTG added to react overnight
From the text: The high-throughput bacterial protein expression was achieved by cloning the synthesized gene that encodes each engineered protein into a bacterial expression vector with a C-terminal histidine tag (His-tag). The vectors were transformed into Escherichia coli (E. coli), and expression of the engineered proteins was induced. E. coli cultures were selected and cultured in centrifuge tubes overnight, meanwhile, added with substrates and IPTG, and the cultures were centrifuged to pellet the bacteria the next day. Alternatively, E. coli cultures were selected and cultured in centrifuge tubes overnight, and centrifuged to pellet the bacteria after adding substrates for reaction the next day. The supernatant of reaction solution was pipetted into a 96-well plate and the absorbance at 510 nm from 4-aminoantipyrine and potassium ferricyanide was measured by an endpoint colorimetric method to detect phenol products. Substrate reduction and product yield were measured by high performance liquid chromatography (HPLC) to detect the oxygenase activity (i.e., enzymatic activity) of the engineered proteins, and the activities of the proteins were compared by calculating conversion rates.
Conversion rate=(Peak area of initial substrate−Peak area of substrate after reaction)/Peak area of initial substrate*100%

Point of comparison: B6, Conversion rate 96.8%. Against it:
- B1 — lower, 94.1%
- B2 — lower, 94%
- B3 — lower, 90%
- B4 — lower, 90%
- B5 — lower, 92.1%
- B7 — lower, 96.5%
- B8 — lower, 94%
- B9 — higher, 97.2%
- B10 — lower, 76.8%
- B11 — lower, 95.5%

Same assay, conditions: Reaction condition 2: bacteria cultured overnight, 8 times dose of substrate compound A of condition 1 added, react 3 hours the next day

Point of comparison: B15, Conversion rate 88.3%. Against it:
- B12 — lower, 53%
- B13 — lower, 54.6%
- B14 — lower, 63.2%
- B16 — lower, 57.5%
